This note sets out measurements from patent publication US20240076386A1 (Pfizer, published 2024).

For assay [1], the target named is T1, human E-selectin, cell-surface expressed (human, UniProt P16581 22-610).
T1 construct: also called CHO-human E-selectin cells; human CHO-E
T1 sequence: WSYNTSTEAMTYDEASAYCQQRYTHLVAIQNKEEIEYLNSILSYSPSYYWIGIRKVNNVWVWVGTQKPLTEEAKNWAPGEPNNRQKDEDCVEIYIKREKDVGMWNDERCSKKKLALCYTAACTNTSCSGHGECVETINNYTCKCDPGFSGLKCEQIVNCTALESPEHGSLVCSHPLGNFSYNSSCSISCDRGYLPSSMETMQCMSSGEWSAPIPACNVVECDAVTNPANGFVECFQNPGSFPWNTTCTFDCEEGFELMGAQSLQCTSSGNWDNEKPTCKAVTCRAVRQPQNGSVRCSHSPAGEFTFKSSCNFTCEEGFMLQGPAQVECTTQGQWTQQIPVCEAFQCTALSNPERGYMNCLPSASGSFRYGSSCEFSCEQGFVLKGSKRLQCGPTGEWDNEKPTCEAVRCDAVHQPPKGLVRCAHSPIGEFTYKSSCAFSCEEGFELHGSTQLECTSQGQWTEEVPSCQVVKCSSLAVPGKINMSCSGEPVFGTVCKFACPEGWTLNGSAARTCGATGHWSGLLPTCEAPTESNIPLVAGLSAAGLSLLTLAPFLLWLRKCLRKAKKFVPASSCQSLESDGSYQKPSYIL
Description: flow cytometry, CHO cells. The procedure: CHO cell lines expressing human E-selectin were detached from confluent flasks using enzyme-free Cell Dissociation Buffer (GIBCO, 13151014). Growth media was immediately added to the detached cells, then centrifuged at 300×g for 5 minutes at room temperature to pellet the cells. The cells were then resuspended in cold CHO buffer consisting of phosphate buffered saline (PBS), pH 7.4 containing bovine serum albumin (BSA; Sigma-Aldrich, A³⁰⁵⁹) at final concentration of 1%, calcium chloride at final concentration of 1 mM, and sodium azide at a final concentration of 0.1%.
Binding studies with CHO cells were performed in duplicate using two rows of a 96-well round bottom plate, whereas, binding studies with primary endothelial cells were performed in a single row of a 96-well V-bottom plate. The plates were centrifuged at 300×g for 2 minutes at 4° C. and the cells were resuspended and blocked by incubation in the CHO buffer for 10 minutes on wet ice. After incubation, the cells were centrifuged at 300×g for 2 minutes at 4° C. to remove the buffer. […] After incubation with the antibody, the cells were washed three times by centrifugation at 300×g for 1 minute at 4° C. and resuspended in cold CHO buffer. The washed cells were resuspended and incubated with 100 μL of 1:1000 dilution of AlexaFluor647-conjugated goat anti-human F(ab′)₂ Fragment (Fcγ fragment specific antibody, [Jackson Innnnunoresearch, 109-606-170] for 45 minutes (CHO cells) or 30 minutes (endothelial cells) on wet ice. The cells were washed three or four times prior to resuspension in CHO buffer for flow cytometric analysis. A Becton Dickinson LSRFortessa instrument using 640 nanometer laser line was used to acquire cell fluorescence data. Geometric mean fluorescence of cells was analyzed by FlowJo software package (FlowJo, LLC) and plotted against antibody concentration. The estimated EC₅₀ values were calculated using nonlinear regression analysis in the Prism suite (GraphPad, version 8).
A general note: Flow cytometry measures light scatter and fluorescence of single cells or particles in a stream.

Assay [2] addresses T2, cynomolgus monkey E-selectin, cell-surface expressed (cynomolgus monkey, UniProt P16581 22-610 (human entry)).
T2 construct: also called CHO-cynomolgus monkey E-selectin cells; cynomolgus monkey CHO-E
T2 chain: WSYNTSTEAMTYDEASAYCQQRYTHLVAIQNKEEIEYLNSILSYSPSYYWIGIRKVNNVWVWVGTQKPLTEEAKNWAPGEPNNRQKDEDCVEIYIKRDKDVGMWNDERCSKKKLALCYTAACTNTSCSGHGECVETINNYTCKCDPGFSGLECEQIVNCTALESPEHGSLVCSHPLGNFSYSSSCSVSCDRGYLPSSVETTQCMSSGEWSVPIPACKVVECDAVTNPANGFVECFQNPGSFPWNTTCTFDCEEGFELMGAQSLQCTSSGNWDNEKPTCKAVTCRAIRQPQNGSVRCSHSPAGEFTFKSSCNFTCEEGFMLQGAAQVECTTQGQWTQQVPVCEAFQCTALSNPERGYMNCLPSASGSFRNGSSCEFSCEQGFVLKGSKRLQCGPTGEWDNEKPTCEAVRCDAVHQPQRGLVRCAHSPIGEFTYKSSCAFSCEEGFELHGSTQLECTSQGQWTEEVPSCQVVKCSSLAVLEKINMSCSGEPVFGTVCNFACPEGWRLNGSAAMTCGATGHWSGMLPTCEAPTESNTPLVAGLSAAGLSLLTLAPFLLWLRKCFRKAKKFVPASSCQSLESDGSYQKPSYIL
Description: competition ELISA on CHO cells vs sialyl Lewis ligand-PAA-biotin/SA-HRP. The procedure: In a static ligand cellular adhesion assay, horse radish peroxidase (HRP) conjugated E-selectin ligand (sialyl Lewis antigen) and E-selectin antibodies compete for binding to human or cynomolgus E-selectin expressed on Chinese hamster ovary (CHO) cells. The ability of anti-E-selectin antibodies to neutralize ligand binding was assessed in a static neutralization assay using a competition enzyme-linked immunosorbent assay (ELISA) to evaluate the neutralization of the sialyl Lewis antigen to Chinese hamster ovary cells (CHO) engineered to express human or cynomolgus monkey E-selectin.
CHO cells expressing E-selectin were seeded at 12,500 cells per well into a 96 well tissue culture plate and incubated at 37° C., 5% CO₂ for 48 hours to form a confluent monolayer. Plates were subsequently washed twice with 200 μL of calcium magnesium free PBS. Anti-E-selectin antibodies or an IgG1 isotype control (IgG control) were added to the assay in the presence of a small synthetic conjugate of biotinylated, sialyl Lewis A polyacrylamide (Carbosynth LLC, OS45446) or sialyl Lewis X polyacrylamide (Glycotech, 01-045) with streptavidin/horseradish peroxidase (100 μL total) and incubated at 37° C., 5% CO₂ for 2 hours. Plates were then washed twice with 200 μL of calcium and magnesium free PBS. Following the incubation, the cells were washed twice with 200 μL of wash buffer containing 2 mM of calcium chloride (50 mM TRIS [trisaminomethane], 150 mM sodium chloride; 0.05% polysorbate 20, pH 7.4; 2 mM calcium chloride). Signal was developed by adding 100 μL of 1-Step Ultra TMB substrate (Thermo Scientific, 34028) and incubating for 30 minutes at room temperature. Reactions were stopped using 2 M of sulfuric acid and absorbance was read at 450 nm (Spectramax M5e). Data were analyzed and graphed using GraphPad Prism software (Version 8.0.2).
(In general: In an ELISA, binding on a coated surface is turned into a signal by an enzyme label.)

In assay [3] the target is T1, human E-selectin, cell-surface expressed. In words: cell-based or functional assay.

B1: humanized anti-E-selectin antibody 0841 (antibody, human IgG1, kappa, V domains shown)
VH: EVQLVESGGGLVQPGGSLRLSCAASGYNIRSSYMHWVRQAPGKGLEWVARIDPANGNTIYAEKFKIRFTISADNAKNSAYLQMNSLRAEDTAVYYCAMDLYSTSEYWGQGTLVTVSS
VL: DIQMTQSPSSLSASVGDRVTITCKTSQNINRYLNWYQQKPGKAPKLLIYNANSLQTGVPSRFSGSGSGTDFTLTISSLQPEDFATYFCLQDNSWPLTFGQGTKVEIKR
notes: effector-null human IgG1, kappa
As to B1, the EC50 (as a rule, the concentration at which the effect is half-maximal) in assay [1] is 0.71 nM.

B2: optimized anti-E-selectin antibody 1282 (antibody, human IgG1, kappa, V domains shown)
VH: EVQLVESGGGLVQPGGSLRLSCAASGYAIRSAYMHWVRQAPGKGLEWVARIDPANGNTIYVDSVEGRFTISADNAKNSAYLQMNSLRAEDTAVYYCAMDLYSTSEYWGQGTLVTVSS
VL: DIQMTQSPSSLSASVGDRVTITCKTSQNIERYLNWYQQKPGKAPKLLIYAASSLQSGVPSRFSGSGSGTDFTLTISSLQPEDFATYFCLQDNAWPLTFGQGTKVEIKR
notes: as for B1
As to B2, the EC50 in assay [1] is 0.85 nM. In addition, the IC50 – broadly, the concentration that gives 50% inhibition – in assay [2] came out at 1.29 nM. Further, in assay [3], the “static neutralization of HL-60 cell adhesion, CHO-human E-selectin cells-IC50” value was 3.4 nM.

B3: anti-E-selectin antibody 0164 chimera (antibody, human IgG1, kappa, V domains shown)
VH: EVQLQQSGAEFGKPGTSVKLSCKVSGYNIRSSYMHWVNQRPGKGLEWIGRIDPANGNTIYAEKFKIKAILTADSSSNTAYMQLSQLKSDDTAIYFCAMDLYSTSEYWGQGVMVTVSS
VL: DIQMTQSPSFLSASVGDRVTINCKTSQNINRYLNWYQQKLGEAPKLLIYNANSLQTGIPSRFSASGSGTDFTLTINSLQPEDVATYFCLQDNSWPLTFGSGTKLEIKR
notes: rat VH/VL on effector-null human IgG1 and human kappa
On to B3, for which the IC50 in assay [2] was found to be 2.25 nM. Besides, the “static neutralization of HL-60 cell adhesion, CHO-human E-selectin cells-IC50” value in assay [3] was 4.4 nM.

B4: optimized anti-E-selectin antibody 1448 (antibody, human IgG1, kappa, V domains shown)
VH: EVQLVESGGGLVQPGGSLRLSCAASGYAIRSAYMHWVRQAPGKGLEWVARIDPANGNTIYVDSVKERFTISADNAKNSAYLQMNSLRAEDTAVYYCAMDLYSTSEYWGQGTLVTVSS
VL: DIQMTQSPSSLSASVGDRVTITCKTSQNIERYLNWYQQKPGKAPKLLIYAASSLQSGVPSRFSGSGSGTDFTLTISSLQPEDFATYFCLQDNAWPLTFGQGTKVEIKR
notes: as for B1
Take B4: the midpoint of the response in assay [1], the EC50, lay at 0.75 nM. Moreover, the IC50 in assay [2] was found to be 1.85 nM. For the same molecule, in assay [3], the “static neutralization of HL-60 cell adhesion, CHO-human E-selectin cells-IC50” value amounted to 6.2 nM.

B5: optimized anti-E-selectin antibody 1284 (antibody, human IgG1, kappa, V domains shown)
VH: EVQLVESGGGLVQPGGSLRLSCAASGYAIRSAYMHWVRQAPGKGLEWVARIDPANGNTIYVESVEGRFTISADNAKNSAYLQMNSLRAEDTAVYYCAMDLYSTSEYWGQGTLVTVSS
VL: DIQMTQSPSSLSASVGDRVTITCKTSQNIERYLNWYQQKPGKAPKLLIYAASSLQSGVPSRFSGSGSGTDFTLTISSLQPEDFATYFCLQDNAWPLTFGQGTKVEIKR
notes: as for B1
In turn, B5 had an EC50 in assay [1] of 0.64 nM. In assay [2], the IC50 turned out to be 1.91 nM. Moreover, in assay [3], the “static neutralization of HL-60 cell adhesion, CHO-human E-selectin cells-IC50” value was 4.4 nM.

B6: optimized anti-E-selectin antibody 1444 (antibody, human IgG1, kappa, V domains shown)
VH: EVQLVESGGGLVQPGGSLRLSCAASGYAIRSAYMHWVRQAPGKGLEWVARIDPANGNTIYVDSVTGRFTISADNAKNSAYLQMNSLRAEDTAVYYCAMDLYSTSEYWGQGTLVTVSS
VL: DIQMTQSPSSLSASVGDRVTITCKTSQNIERYLNWYQQKPGKAPKLLIYAASSLQSGVPSRFSGSGSGTDFTLTISSLQPEDFATYFCLQDNAWPLTFGQGTKVEIKR
notes: as for B1
Take B6: the EC50 in assay [1] turned out to be 0.66 nM. The IC50 in assay [2] is 2.65 nM. Also, in assay [3], the “static neutralization of HL-60 cell adhesion, CHO-human E-selectin cells-IC50” value turned out to be 4.7 nM.
